In patent publication US20230365714A1 (published 2023):

Assays:
[1] = molecular target: T1, his-tagged ROR2 extracellular domain (ROR2-ECD, G&P Biosciences, cat. no. FCL0192) (human, UniProt Q01974 34-403); assay: BLI (Octet HTX), antibody on anti-human IgG Fc sensor, ROR2-ECD as analyte
T1 construct: Bought protein; also called human ROR2-ECD; recombinant human ROR2-ECD; not shown: his tag
Experimental: Experiments were carried out while shaking at 1,000 RPM at 30° C.
Anti-Human IgG Fc Capture (AHC) biosensors (ForteBio, cat. no. 18-5060) were pre-conditioned by exposure to 10 mM glycine (Riedel-de Haen, cat. no. 15527) buffer pH 1.7 for 5 s, followed by neutralization in Sample Diluent (ForteBio, cat. no. 18-1048) for 5 s; both steps were repeated 5 times. Next, AHC sensors were loaded with the antibody (2.5 μg/mL in Sample diluent) for 600 s. After a baseline measurement in Sample Diluent (300 s), the association (1,000 s) and dissociation (1,000 s) of a commercially available his-tagged ROR2 extracellular domain (ROR2-ECD, G&P Biosciences, cat. no. FCL0192) was determined using a concentration range of 6.25-400 nM with two-fold dilution steps in Sample Diluent. The calculated molecular mass of ROR2 ECD based on their amino acid sequences of 42.7 kDa was used for calculations. For each antibody a reference sensor was used, which was incubated with Sample Diluent instead of antigen. AHC sensors were regenerated by exposure to 10 mM glycine buffer pH 1.7 for 5 s, followed by neutralization in Sample Diluent for 5 s; both steps were repeated twice. Subsequently sensors were loaded again with antibody for the next cycle of kinetics measurements.
The Y-axis was aligned to the last 10 s of the baseline, Interstep Correction alignment to dissociation and Savitzky-Golay filtering were applied.

[2] = molecular target: T2, ROR121 shuffle variant (Ig-like domain of ROR1, CRD of ROR2, kringle domain of ROR1) (human (ROR1/ROR2 chimera), UniProt Q01973 30-937); assay: cell imaging (CellInsight) on CHO cells expressing the shuffle construct
T2 construct: Transiently expressed on CHO cells
T2 chain: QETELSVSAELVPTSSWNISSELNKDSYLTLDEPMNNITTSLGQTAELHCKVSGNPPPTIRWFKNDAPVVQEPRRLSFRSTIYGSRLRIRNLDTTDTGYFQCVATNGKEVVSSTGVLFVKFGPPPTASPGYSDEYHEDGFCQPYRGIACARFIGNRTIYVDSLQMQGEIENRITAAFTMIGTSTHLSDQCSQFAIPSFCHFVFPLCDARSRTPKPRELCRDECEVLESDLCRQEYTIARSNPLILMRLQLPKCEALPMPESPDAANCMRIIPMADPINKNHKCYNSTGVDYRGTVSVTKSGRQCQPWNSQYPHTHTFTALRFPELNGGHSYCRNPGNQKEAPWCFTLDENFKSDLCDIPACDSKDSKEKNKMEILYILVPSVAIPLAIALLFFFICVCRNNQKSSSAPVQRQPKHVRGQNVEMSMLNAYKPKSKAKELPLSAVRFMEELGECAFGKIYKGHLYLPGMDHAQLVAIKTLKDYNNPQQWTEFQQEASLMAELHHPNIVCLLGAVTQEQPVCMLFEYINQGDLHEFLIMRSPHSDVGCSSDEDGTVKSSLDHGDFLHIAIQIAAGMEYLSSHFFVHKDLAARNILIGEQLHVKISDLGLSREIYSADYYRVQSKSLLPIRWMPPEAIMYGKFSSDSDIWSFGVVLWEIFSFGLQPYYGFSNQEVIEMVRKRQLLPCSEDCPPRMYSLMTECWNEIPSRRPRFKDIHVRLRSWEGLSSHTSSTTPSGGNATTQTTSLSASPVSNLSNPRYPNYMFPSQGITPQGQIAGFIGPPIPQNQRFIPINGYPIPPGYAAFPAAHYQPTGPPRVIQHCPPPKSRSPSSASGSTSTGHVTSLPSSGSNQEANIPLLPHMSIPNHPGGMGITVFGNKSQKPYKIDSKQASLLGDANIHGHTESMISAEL
Experimental: (§1) Binding was determined […] using a cell imaging screening system (Celllnsight, Thermo Fisher) as per manufacturer's recommendations. In short, CHO cells expressing shuffle constructs ROR112, ROR121, ROR122, ROR211 or ROR221 (3,000 cells/well in 384-well plates) were incubated with antibody or control samples for 18 h at 37° C./5% CO₂, washed and incubated with an Alexa488-labeled detection antibody for 4 h. Hoechst dye was added and fluorescence images were collected, measuring total spot intensity (RFU).

[3] = molecular target: T3, ROR221 shuffle variant (Ig-like domain and CRD of ROR2, kringle domain of ROR1) (human (ROR1/ROR2 chimera), UniProt Q01973 30-937); assay: as above
T3 chain: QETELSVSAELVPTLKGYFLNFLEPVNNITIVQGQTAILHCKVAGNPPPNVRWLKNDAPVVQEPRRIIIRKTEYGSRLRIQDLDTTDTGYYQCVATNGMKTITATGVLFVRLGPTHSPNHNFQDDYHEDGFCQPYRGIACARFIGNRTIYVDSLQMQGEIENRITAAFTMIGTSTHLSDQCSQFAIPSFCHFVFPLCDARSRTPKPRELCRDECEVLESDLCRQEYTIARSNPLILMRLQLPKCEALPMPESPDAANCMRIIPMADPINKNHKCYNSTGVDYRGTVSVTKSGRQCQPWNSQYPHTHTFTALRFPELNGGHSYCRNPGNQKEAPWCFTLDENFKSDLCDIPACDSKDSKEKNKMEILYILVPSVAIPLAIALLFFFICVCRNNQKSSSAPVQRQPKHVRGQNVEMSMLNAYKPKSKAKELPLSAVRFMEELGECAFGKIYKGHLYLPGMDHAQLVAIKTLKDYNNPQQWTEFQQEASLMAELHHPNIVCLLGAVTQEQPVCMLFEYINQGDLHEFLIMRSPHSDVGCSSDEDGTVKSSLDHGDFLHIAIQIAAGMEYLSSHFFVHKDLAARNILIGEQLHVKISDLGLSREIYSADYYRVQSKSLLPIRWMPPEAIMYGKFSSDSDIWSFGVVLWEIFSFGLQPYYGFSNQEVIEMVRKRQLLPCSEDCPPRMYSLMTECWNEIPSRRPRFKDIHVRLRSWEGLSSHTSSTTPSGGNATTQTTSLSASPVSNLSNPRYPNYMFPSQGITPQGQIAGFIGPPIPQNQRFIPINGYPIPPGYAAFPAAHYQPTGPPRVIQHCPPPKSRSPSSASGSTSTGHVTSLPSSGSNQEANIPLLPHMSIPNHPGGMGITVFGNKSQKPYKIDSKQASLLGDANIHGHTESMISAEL
Experimental: as §1

B1: chIgG1-ROR2-A (antibody, V domains shown)
VH: QSVEESGGRLVTPGTPLTLTCTVSGFSLSSYSMSWVRQAPGKGLEWIGVIYVNSKTWYANWAKGRFTISKTSTTVDLKITSPTTEDTATYFCARGDAGYTTNSWLWGPGTLVTVSS
VL: AFELTQTPASVSEPVGGTVTIKCQASESIDNYCSWYQQKPGQPPKLLIYQAFKLASGVPSRFRGSGSGTQFTLTISDLESDDAATYYCQSYSGISTTAFGGGTEVVVK
notes: Rabbit-human chimeric antibody; also called ROR2 specific antibody A
Kd [1]: 1.6 nM | koff [1]: 0.00095 s⁻¹ | kon [1]: 610000 M⁻¹ s⁻¹ | RFU (total spot intensity) [2]: 0 RFU | binding result [2]: no binding (tested: RFU = 0) | RFU (total spot intensity) [3]: 0 RFU | binding result [3]: no binding (tested: RFU = 0)
